Assay results reported in the supplement of paper PMC10065799, “High-throughput profiling of sequence recognition by tyrosine kinases and SH2 domains using bacterial peptide display” (eLife, 2023).

Assays:
[1] = molecular target: SHP2-C SH2; experiment: SH2 binding enrichment of the phosphorylated peptide, bacterial display (enrichment ratio); higher = better substrate or ligand; peptides without Tyr show the background
[2] = molecular target: c-Src SH2; experiment: as above
[3] = molecular target: Grb2 SH2 (UniProt P62993); experiment: as above
[4] = system: c-Src; experiment: phosphorylation enrichment, bacterial display (enrichment ratio); higher = better substrate or ligand; peptides without Tyr show the background
[5] = molecular target: Jak2 (UniProt O60674); experiment: as above
[6] = molecular target: Fes (UniProt P07332); experiment: as above
[7] = molecular target: MERTK (UniProt Q12866); experiment: as above
[8] = system: c-Abl (mouse); experiment: as above
[9] = molecular target: Fyn (UniProt P06241); experiment: as above
[10] = molecular target: FGFR3 (UniProt P22607); experiment: as above
[11] = molecular target: FGFR1 (UniProt P11362); experiment: as above
[12] = system: AncSZ; experiment: as above
[13] = molecular target: Hck (UniProt P08631); experiment: as above
[14] = system: Fer (mouse); experiment: as above
[15] = molecular target: EPHB1 (UniProt P54762); experiment: as above
[16] = molecular target: EPHB2 (UniProt P29323); experiment: as above
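Wherever SH2 binding enrichment of the phosphorylated peptide, bacterial display is given: peptide library displayed on the E. coli surface as eCPX fusions, selected cells deep-sequenced, score is each peptide's frequency after selection divided by its frequency in the input.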
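Wherever phosphorylation enrichment, bacterial display is given: 11-residue human phosphosite peptides and single-mutation variants displayed on the E. coli surface, counted by deep sequencing, each peptide's frequency after selection divided by its frequency in the unselected input library; frequency after pTyr selection over input frequency; kinase dosed for 20-30% of maximal phosphorylation in three min.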

Hck, sequence (P08631 whole entry, looked up): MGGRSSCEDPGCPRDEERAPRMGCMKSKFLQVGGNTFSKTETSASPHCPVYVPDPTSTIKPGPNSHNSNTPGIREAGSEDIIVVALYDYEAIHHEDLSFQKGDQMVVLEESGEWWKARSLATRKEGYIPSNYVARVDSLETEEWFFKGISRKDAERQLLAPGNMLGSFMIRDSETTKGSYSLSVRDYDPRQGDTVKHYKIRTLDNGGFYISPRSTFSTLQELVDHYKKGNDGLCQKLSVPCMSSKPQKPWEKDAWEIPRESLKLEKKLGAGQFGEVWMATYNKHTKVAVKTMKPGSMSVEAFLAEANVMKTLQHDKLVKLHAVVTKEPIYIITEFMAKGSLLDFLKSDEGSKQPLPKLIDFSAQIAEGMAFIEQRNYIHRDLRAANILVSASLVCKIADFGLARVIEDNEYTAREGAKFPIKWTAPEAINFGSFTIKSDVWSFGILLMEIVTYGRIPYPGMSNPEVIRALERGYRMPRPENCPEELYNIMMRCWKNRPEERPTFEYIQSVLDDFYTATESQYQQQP
EPHB2, sequence (P29323 whole entry, looked up, the tested form may be a part): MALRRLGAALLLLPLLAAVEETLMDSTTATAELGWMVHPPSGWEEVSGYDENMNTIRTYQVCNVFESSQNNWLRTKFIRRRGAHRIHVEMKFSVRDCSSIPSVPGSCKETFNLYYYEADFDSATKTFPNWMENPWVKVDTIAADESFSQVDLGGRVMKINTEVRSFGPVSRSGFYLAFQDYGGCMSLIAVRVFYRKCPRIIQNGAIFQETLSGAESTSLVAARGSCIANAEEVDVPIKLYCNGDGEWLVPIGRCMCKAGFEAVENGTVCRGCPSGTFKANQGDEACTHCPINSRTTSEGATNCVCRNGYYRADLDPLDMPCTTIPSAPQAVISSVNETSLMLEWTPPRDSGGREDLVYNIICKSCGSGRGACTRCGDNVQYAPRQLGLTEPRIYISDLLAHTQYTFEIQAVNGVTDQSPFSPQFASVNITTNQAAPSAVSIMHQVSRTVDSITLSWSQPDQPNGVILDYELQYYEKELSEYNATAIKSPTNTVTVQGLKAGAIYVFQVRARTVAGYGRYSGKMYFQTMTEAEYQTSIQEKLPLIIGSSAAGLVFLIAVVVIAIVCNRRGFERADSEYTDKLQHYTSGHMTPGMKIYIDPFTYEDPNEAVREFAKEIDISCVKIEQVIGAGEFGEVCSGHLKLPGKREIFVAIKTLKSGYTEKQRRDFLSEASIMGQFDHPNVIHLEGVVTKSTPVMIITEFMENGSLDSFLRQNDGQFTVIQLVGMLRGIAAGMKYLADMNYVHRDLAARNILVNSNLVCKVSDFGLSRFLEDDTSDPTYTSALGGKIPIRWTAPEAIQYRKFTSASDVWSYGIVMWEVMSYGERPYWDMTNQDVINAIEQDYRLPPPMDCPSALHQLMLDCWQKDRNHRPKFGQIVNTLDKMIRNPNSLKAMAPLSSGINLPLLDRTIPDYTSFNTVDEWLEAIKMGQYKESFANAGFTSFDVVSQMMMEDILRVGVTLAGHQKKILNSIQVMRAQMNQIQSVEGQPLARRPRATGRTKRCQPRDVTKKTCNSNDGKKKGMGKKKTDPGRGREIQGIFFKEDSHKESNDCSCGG
EPHB1, sequence (P54762 whole entry, looked up): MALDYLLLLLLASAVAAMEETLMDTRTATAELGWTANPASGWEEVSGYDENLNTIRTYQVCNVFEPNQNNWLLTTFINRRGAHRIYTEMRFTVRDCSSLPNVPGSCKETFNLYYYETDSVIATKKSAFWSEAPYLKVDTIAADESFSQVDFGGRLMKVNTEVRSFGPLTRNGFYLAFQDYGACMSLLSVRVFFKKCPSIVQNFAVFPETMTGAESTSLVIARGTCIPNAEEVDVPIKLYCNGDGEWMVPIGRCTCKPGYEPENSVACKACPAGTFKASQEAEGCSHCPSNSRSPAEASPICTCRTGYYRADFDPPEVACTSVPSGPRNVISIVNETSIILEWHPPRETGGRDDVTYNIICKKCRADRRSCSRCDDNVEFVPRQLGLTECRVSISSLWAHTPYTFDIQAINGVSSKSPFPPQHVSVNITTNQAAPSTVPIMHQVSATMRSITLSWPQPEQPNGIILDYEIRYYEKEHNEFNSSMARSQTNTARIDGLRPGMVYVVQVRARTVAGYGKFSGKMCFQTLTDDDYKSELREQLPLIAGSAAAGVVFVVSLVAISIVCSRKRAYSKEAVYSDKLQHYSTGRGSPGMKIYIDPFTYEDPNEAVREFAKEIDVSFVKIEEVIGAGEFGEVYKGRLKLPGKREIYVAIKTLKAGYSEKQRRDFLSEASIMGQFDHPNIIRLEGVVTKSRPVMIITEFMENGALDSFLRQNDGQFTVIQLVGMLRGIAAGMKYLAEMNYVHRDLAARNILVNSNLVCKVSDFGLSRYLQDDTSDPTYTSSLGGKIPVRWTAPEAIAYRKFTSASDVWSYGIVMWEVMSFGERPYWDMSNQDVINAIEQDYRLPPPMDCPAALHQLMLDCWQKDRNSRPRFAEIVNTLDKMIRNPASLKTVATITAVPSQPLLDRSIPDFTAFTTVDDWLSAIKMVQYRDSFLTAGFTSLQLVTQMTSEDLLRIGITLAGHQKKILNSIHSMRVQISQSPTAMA
Jak2, sequence (O60674 whole entry, looked up): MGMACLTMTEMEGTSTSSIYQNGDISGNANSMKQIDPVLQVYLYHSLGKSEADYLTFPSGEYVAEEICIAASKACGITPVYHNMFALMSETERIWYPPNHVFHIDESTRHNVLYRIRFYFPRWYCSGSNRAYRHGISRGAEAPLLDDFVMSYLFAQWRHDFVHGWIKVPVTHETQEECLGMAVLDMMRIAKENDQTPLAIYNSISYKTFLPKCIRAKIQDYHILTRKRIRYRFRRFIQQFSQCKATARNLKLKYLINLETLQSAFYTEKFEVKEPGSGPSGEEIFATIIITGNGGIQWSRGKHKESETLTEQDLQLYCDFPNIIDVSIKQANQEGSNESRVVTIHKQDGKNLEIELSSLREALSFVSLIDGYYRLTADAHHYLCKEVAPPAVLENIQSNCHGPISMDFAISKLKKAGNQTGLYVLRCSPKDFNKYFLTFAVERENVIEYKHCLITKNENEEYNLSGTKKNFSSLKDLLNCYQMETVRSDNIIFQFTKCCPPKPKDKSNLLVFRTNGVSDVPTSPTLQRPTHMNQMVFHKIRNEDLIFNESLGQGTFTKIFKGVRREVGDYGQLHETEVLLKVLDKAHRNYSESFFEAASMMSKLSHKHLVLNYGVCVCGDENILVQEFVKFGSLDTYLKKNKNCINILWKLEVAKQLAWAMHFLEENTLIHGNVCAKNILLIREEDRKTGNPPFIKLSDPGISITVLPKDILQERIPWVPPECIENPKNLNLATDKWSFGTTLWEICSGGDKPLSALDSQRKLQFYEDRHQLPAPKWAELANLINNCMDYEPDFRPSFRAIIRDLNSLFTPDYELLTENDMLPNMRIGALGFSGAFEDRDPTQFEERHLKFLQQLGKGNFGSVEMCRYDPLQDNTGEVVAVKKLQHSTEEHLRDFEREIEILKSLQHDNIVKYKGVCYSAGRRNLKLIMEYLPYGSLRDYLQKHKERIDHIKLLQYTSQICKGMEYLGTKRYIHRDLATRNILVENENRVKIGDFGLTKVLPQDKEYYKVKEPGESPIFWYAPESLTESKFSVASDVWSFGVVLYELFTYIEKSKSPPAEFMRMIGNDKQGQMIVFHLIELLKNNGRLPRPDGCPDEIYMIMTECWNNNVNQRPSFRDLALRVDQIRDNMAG
FGFR1, sequence (P11362 whole entry, looked up): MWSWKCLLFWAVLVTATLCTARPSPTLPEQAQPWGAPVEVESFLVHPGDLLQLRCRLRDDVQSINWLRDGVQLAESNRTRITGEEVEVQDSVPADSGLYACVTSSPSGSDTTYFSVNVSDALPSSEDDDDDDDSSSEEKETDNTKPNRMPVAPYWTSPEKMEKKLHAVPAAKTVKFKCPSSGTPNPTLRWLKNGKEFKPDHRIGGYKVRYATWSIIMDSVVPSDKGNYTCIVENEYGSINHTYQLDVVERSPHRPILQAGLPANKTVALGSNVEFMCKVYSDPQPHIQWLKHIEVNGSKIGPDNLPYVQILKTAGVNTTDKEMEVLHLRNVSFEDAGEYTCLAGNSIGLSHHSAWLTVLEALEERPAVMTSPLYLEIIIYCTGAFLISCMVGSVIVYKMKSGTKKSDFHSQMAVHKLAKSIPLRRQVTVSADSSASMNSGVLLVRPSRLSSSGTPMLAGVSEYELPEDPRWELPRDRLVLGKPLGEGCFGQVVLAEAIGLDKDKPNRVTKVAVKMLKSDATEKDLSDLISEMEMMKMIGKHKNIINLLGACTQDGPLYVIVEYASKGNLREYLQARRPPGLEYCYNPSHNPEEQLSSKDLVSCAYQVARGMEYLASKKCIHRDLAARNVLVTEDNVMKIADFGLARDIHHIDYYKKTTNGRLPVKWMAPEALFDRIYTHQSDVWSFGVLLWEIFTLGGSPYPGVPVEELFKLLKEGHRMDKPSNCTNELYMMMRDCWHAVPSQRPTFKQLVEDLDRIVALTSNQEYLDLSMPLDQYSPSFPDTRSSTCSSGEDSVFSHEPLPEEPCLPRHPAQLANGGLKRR
Fyn, sequence (P06241 whole entry, looked up): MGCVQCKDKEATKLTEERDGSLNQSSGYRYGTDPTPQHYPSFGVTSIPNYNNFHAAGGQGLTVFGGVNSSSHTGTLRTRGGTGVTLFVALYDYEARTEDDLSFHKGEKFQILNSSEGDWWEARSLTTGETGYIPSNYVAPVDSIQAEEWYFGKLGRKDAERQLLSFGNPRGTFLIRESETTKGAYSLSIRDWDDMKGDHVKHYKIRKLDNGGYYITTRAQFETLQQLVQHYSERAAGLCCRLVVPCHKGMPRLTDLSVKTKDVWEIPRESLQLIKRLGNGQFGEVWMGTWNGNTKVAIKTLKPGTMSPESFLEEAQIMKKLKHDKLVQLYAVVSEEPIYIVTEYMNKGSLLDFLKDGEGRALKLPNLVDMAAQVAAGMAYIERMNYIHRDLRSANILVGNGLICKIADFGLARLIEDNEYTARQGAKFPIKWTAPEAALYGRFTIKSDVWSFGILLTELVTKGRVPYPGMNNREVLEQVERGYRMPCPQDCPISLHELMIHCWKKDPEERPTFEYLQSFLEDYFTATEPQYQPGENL

SH2 binding enrichment [1]	SH2 binding enrichment [2]	SH2 binding enrichment [3]	Sequence	phosphorylation enrichment [4]	phosphorylation enrichment [5]	phosphorylation enrichment [6]	phosphorylation enrichment [7]	phosphorylation enrichment [8]	phosphorylation enrichment [9]	phosphorylation enrichment [10]	phosphorylation enrichment [11]	phosphorylation enrichment [12]	phosphorylation enrichment [13]	phosphorylation enrichment [14]	phosphorylation enrichment [15]	phosphorylation enrichment [16]
0.955	0.592	1.04	KLSFSYGRALQ [ALDOB_Y302]	0.417	0.847	0.994	0.407	0.694	0.388	0.642	0.519	0.9	0.46	0.413	0.548	0.483
1.06	0.689	1.08	RAILDYIASKF [GSTA3_Y74_N73D_YF]	0.358	0.755	1.02	0.375	0.603	0.433	0.79	0.567	0.674	0.395	0.542	0.479	0.445
0.609	0.469	0.69	FGGLRCGFGVL [KRTAP20-2_Y13_Y13C_YF]	0.37	0.901	1.14	0.34	0.673	0.349	0.686	0.45	0.91	0.403	0.46	0.49	0.537
0.916	0.552	0.82	TESALYGCTVL [KIAA1804_Y724]	4.74	1.12	1.27	1.46	1.04	5.57	1.15	0.559	1.13	4.05	4.71	0.686	0.885
0.8	0.579	0.752	TESNNYIYTTL [FAM83B_Y637_K640T]	7.09	0.774	0.898	5.09	0.692	8.53	1.92	2.74	1.03	7.3	2.64	2.3	1.15
0.588	0.52	0.822	WQQQSYLASGI [CTNNB1_Y30_D32A]	0.5	0.638	0.754	0.411	0.686	0.487	0.533	0.463	0.642	0.447	0.442	0.532	0.51
0.472	0.422	0.713	KLIETYSSKNF [PLP1_Y50_F51S_YF]	0.451	0.59	0.996	0.401	0.588	0.504	0.46	0.446	0.654	0.519	0.388	0.769	0.618
1.01	0.532	0.685	IRDENYGEGSS [ACO2_Y665_G661R]	0.481	0.733	0.936	0.46	0.639	0.421	0.559	0.437	0.917	0.925	0.588	0.364	0.422
0.87	0.456	0.814	FHKALYTVRSY [PDE6C_Y266]	0.582	0.704	0.919	0.414	0.775	0.515	0.576	0.465	0.814	0.801	0.471	0.534	0.524
0.832	7.89	0.874	PFQGAYLEINK [MYO1B_Y967]	0.607	1.24	1.09	0.464	0.497	0.526	0.763	0.485	1.03	0.361	0.401	0.609	0.577
1.42	1.34	1.44	AKKKMYSHKTK [AGXT_Y231_R233H]	0.727	3.12	1.63	0.689	1.62	0.609	2.37	0.621	0.961	0.666	1.12	1.01	0.823
0.432	0.529	0.702	CVRTIYTIDGS [DCLK2_Y124_G119C]	1.97	0.807	1.06	0.481	0.799	1.32	1	0.447	0.891	0.683	0.505	0.746	0.628
1.62	1.33	1.48	LFCLHYFHRTF [SRD5A2_Y91_V89L]	0.879	1.78	1.93	0.66	1.21	1.07	1.46	0.71	1.85	0.494	0.888	0.9	0.541
0.762	0.931	1.38	RKKEEYKMALY [F8_Y1990]	0.546	0.477	0.708	0.462	0.632	0.46	0.33	0.58	0.492	1.05	0.289	0.337	0.387
0.772	0.584	1.04	HELYVYKSDEN [DOCK3_Y548_C550S]	0.917	1.75	2.14	0.487	1.19	0.849	1.32	0.684	1.7	0.835	0.879	1.28	0.912
0.535	0.483	0.692	HLELNYKEDEY [MME_Y502_Y497H]	0.418	1.06	0.994	0.396	0.62	0.514	0.611	0.487	1.32	0.382	0.344	0.562	0.535
0.542	0.375	0.73	FKDYFYCWNTS [AICDA_Y146_F151S]	0.885	3.67	1.44	2.14	0.973	0.618	9.31	11.2	2.62	0.599	1.03	5.4	2.58
